# Test system: HEK293 cells
# Assay: In vitro killing/toxicity (CCK-8) on normal HEK293 cells
# Assay type: cell-based
# Details: 32-1000 ng/mL, 96 hours
# Text: 4 types of cells were selected to measure in vitro anti-tumor activity of the rTRAIL mutant and the MMAE conjugate: TRAIL sensitive type (NCI-H460), TRAIL insensitive type (Hela), TRAIL resistant type (MCF-7) and normal cells (HEK293). All of these 4 types of cells had TRAIL death receptor on their surfaces.
# Hereinafter, TRAIL sensitive type NCI-H460 cell was taken as an example to give detailed description of the test procedure, including the following steps:
# (1) Digesting the NCI-H460 cells into individual cells, followed by diluting to 1×10^4 cells/mL, spreading the cells on 96-well plate (100 μL for each well), and culturing the cells for 24 hours under normal condition.
# (2) Diluting N109C, N109C-vcMMAE and S96C-vcMMAE with culture medium respectively, and adding them into the cell plate with final concentrations of 32, 63, 125, 250, 500, 1000 ng/mL for serving as the test groups, while using standard TRAIL (114-281) as the positive control group, using the buffer (used for dissolving the test sample, diluted with the culture medium in a same manner) as the negative control group, and using the culture medium (without adding any solution) as the blank control group. All the control groups and test groups were tested in triplicate. […]
substance,measurement,value
TRAIL (114-281): standard TRAIL (114-281) used as the positive control group,toxicity to normal cells,considerably low toxicity
